# According to publication PMC2888438:
# Target: TRIM25 (UniProt Q14258)
# Experiment: co-immunoprecipitation, Western blot
# Details: reference: wild type 2CARD; sites S8
substance,measurement,value
RIG-I 2CARD region (CARD1 and CARD2) (from UniProt O95786) S8A,binding against the reference,stronger
